Biological target: T1, human BiP (Homo sapiens, UniProt P11021)
T1 construct: The human BiP gene except the signal peptide encoding region was obtained from Geneart (Germany); linker […]; made in house; host or cells: HEK 293E cells, transient transfection, PABC674 vector; secreted into the medium
Test: Competition ELISA: BiP binding to misfolded proteins under influence of crossbeta binding compounds
Details: for Influence on interaction of BiP with misfolded proteins comprising crossbeta structure (summary in words): BiP binding without compound set to 100%
Method: Binding of chaperones to immobilized (misfolded) protein ligands was determined using an enzyme linked immuno sorbent assay (ELISA) approach. For this purpose 50 μl/well of potential ligands at indicated concentrations or coat buffer only for control and background measurement purposes, were coated overnight at 4° C. or coated for 1 h at room temperature, with motion, in 50 mM NaHCO3 pH 9.6 (coat buffer). In general, ligands were coated at 5 μg/ml, unless stated otherwise. For example, BiP binding peptides 6BB# and oxLDL were coated at 50 μg/ml. Native haemoglobin (Sigma-Aldrich, H7379), albumin, IgIV Gammagard and ovalbumin controls were prepared from lyophilized stocks. The controls were prepared by dissolving lyophilized proteins at 1 mg/ml in PBS upon resuspending by pipetting, followed by a 30 minutes period at the roller device, at room temperature. The protein solutions were centrifuged for 10 minutes at 16,000*g and diluted in coat buffer. After coating the plates were washed at least three times with 50 mM Tris-HCl pH 7.3, 150 mM NaCl, 0.1% v/v Tween20, and blocked with Blocking reagent (Roche Diagnostics, Almere, The Netherlands; 11112589001), for 1 h at room temperature, with motion. Plates were washed three times and incubated in triplicate with indicated chaperone dilution series, at 50 μl/well, for 1 h at room temperature, with constant motion. For HSP90, 5 mM DTT is incorporated in the binding buffer (PBS/0.1% Tween20) to avoid unwanted disulfide bond formation of the HSP90. […] After four wash cycles, secondary antibodies were added to the wells when required, 50 μl/well, for 45′ at room temperature, with motion. RAMPO and SWARPO were used at 3000 times dilution. […] In a second experiment with more immobilized misfolded proteins and controls, the detection of bound HSP90 with the mix of two anti-HSP90 antibodies was achieved by mixing 1:1500 SWARPO with 1:3000 RAMPO. After 5 washes with wash buffer followed by two washes with PBS, binding of antibodies was assessed. Bound anti-FLAG-PO, peroxidase-conjugated rabbit anti-mouse immunoglobulins (RAMPO, P0260, DAKOCytomation, Glostrup, Denmark) or peroxidase-coupled swine anti-rabbit immunoglobulins (SWARPO, P0217, DAKOCytomation) was visualized with tetramethylbenzidine (TMB, #45.01.20,/#45.014.01, Biosource, Nivelles, Belgium). The reaction was stopped after 5 minutes with 1% H2SO4 in H2O. Plates were read at 450 nm. Triplicates were averaged and standard deviations calculated. Background signals obtained with buffer-coated wells were subtracted (binding of primary antibody to empty wells), as well as background signals obtained with ligand-coated wells in which the chaperones were omitted (binding of primary and secondary antibody to coated ligands). Subsequently, sub-optimal concentrations of chaperones for binding to misfolded protein ligands are determined, and these concentrations are used for inhibition studies.
In a subsequent study we analysed whether BiP interacts directly with the crossbeta structure, by performing ELISA binding studies with a fixed sub-optimal concentration of BiP and concentration series of crossbeta binding compounds. The results are depicted in FIGS. 12, 13 and Table 7. Binding of BiP without added crossbeta binding compounds was set to 100%.

[1] = fixed sub-optimal BiP concentration, 10 mM ε-amino caproic acid

T1 sequence (P11021 19-654): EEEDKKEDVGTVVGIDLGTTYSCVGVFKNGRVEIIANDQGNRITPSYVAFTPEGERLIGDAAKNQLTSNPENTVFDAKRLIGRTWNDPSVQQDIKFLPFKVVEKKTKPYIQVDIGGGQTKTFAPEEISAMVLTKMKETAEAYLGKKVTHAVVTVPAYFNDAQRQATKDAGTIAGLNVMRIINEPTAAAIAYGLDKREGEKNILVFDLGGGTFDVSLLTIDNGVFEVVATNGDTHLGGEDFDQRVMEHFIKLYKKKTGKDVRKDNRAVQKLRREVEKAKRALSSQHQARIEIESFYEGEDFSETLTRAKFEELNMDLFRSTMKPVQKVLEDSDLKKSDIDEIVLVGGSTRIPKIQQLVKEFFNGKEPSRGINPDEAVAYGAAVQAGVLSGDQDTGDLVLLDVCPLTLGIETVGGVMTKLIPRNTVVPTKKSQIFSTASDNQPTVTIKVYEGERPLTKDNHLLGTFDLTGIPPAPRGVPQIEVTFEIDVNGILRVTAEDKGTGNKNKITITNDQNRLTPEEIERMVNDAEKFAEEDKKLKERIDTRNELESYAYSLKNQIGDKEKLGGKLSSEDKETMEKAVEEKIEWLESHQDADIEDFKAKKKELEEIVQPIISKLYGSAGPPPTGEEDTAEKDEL

| Compound | Influence on interaction of BiP with misfolded proteins comprising crossbeta structure (summary in words) | Influence of K2P tPA on interaction of BiP with misfolded protein [1] | Influence of tPA on interaction of BiP with misfolded protein [1] | Influence of IgIV on interaction of BiP with misfolded protein (fixed sub-optimal BiP concentration, IgIV Octagam series) | Influence of Congo red on interaction of BiP with misfolded protein (fixed sub-optimal BiP concentration, concentration series of Congo red) | Influence of ThS on interaction of BiP with misfolded protein (fixed sub-optimal BiP concentration, concentration series of ThS) |
| --- | --- | --- | --- | --- | --- | --- |
| Nc1c(/N=N/c2ccc(-c3ccc(/N=N/c4cc(S(=O)(=O)O)c5ccccc5c4N)cc3)cc2)cc(S(=O)(=O)O)c2ccccc12 [Congo red] | general inhibitors |  |  |  |  |  |
| Cc1ccc2c(c1)sc(-c1ccc(N(C)C)cc1)[n+]2C.[Cl-] [ThT, Thioflavin T] | can either potentiate BiP binding, or inhibit |  |  |  |  |  |
| GSNKGAIIGLM [6BB6, Human Aβ (25-35)] |  | − | ↓ (a ↓ sign refers to inhibited abolished binding of BiP) | ↓ (a ↓ sign refers to inhibited abolished binding of BiP) | ↓ (a ↓ sign refers to inhibited abolished binding of BiP) | − |
